Target: SARS-CoV-2 spike (S) protein on pseudotyped HIV-1 reporter virus (SARS-CoV-2) (UniProt P0DTC2)
Assay: cell-based or functional assay

C144 (antibody), sequence (VH): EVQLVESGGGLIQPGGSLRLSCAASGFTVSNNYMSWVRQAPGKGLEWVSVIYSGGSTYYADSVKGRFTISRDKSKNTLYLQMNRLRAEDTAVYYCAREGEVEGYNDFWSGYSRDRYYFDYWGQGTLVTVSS
C144 (antibody), sequence (VL): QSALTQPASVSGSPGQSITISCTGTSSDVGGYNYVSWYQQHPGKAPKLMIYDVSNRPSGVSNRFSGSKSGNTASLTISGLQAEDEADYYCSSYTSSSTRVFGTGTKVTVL

Question: With C144 (antibody) as the substance, how does the IC50 read?
Answer: Its IC50 is 0.00286 µg/mL.

Question: And the IC90?
Answer: Its IC90 is 0.0405 µg/mL.

— US20220195015A1
